Experimental findings from the supplement of paper PMC7877785 are described below.

± gives the uncertainty stated by the source.

The nature of this data set: self-splicing fitness, log relative to wild type (ln ratio); higher = more splicing; Tetrahymena group I intron in knt gene, E. coli kanamycin selection, DiMSum; sequences stand for … in CUCUCU…GGAGGGAAAAGUUAUCAGGCAUGCACCUGGUAGCUAGUCUUUAAACCAAUAGAUUGCAUCGGUUUAAAAGGCAAGACCGUCAAAUUGCGGGAAAGGGGUCAACAGCCGUUCAGUACCAAGUCUCAGGGGAAACUUUGAGAUGGCCUUGCAAAGGGUAUGGUAAUAAGCUGACGGACAUGGUCCUAACCACGCAGCCAAGUCCUAAGUCAACAGAUCUUCUGUUGAUAUGGAUGCAGUUCACAGACUAAAUGUCGGUCGGGGAAGAUGUAUUCUUCUCAUAAGAUAUAGUCGGACCUCUCCUUAAUGGGAGCUAGCGGAUGAAGUGAUGCAACACUGGAGCCGCUGGGAACUAAUUUGUAUGCGAAAGUAUAUUGAUUAGUUUUGGAGUACUCGUGGUCG
In short, it runs like this:
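DiMSum derived fitness as the error-weighted combination of fold changes across replicates, kanamycin versus no kanamycin, normalised to wild type. E. coli BL21(DE3) held the library, which randomised all eight P1ex-region intron nucleotides within the knt kanamycin-resistance gene on pET-22b(+). Six replicate transformations grew overnight at 37°C or 30°C on LB agar with or without 25 μg/mL kanamycin, also containing 100 μg/mL carbenicillin, 50 μM IPTG and 0.2% rhamnose, and pooled colonies were amplicon-sequenced on an Illumina HiSeq 2500.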

On to GGUCAGCAAUAUUACGGAUU, for which the “self-splicing fitness (ln)” value was -0.77 ± 0.079 (30 °C) and -0.499 ± 0.1 (37 °C).
UCGGAGCAAUAUUACGUCGU: the “self-splicing fitness (ln)” value was -1.37 ± 0.25 (30 °C) and -1.73 ± 0.3 (37 °C).
For UCUAAGCAAUAUUACGCUGU the same measures were -2.47 ± 0.18 and -2.59 ± 0.21.
For AGGAAGCAAUAUUACGGUCC the same measures were -1.54 ± 0.23 and -1.05 ± 0.4.
Take UAACAGCAAUAUUACGAUAG: the “self-splicing fitness (ln)” value reads like this: (30 °C) -1.21 ± 0.11; (37 °C) -0.506 ± 0.12.
Regarding UAACAGCAAUAUUACGACAC, the “self-splicing fitness (ln)” value (30 °C) was -3.35 ± 0.16 and the “self-splicing fitness (ln)” value (37 °C) was -0.676 ± 0.11.
Turning to AGCAAGCAAUAUUACGGUCG, the “self-splicing fitness (ln)” value is -0.327 ± 0.1 (30 °C) and 0.74 ± 0.13 (37 °C).
Regarding CUACAGCAAUAUUACGAGCG, the “self-splicing fitness (ln)” value was -0.282 ± 0.076 (30 °C) and -0.442 ± 0.1 (37 °C).
Take CUCCAGCAAUAUUACGUCAA: the “self-splicing fitness (ln)” value is -3.08 ± 0.19 (30 °C) and -3.24 ± 0.23 (37 °C).
Consider UUAUAGCAAUAUUACGAAUU, for which the “self-splicing fitness (ln)” value (30 °C) was -3.24 ± 0.33 and the “self-splicing fitness (ln)” value (37 °C) was -0.681 ± 0.25.
For AAGUAGCAAUAUUACGCAAG the same measures were -1.81 ± 0.17 and 0.657 ± 0.18.
Regarding UCAAAGCAAUAUUACGGUAA, the “self-splicing fitness (ln)” value is, setting by setting: (30 °C) -2.48 ± 0.16; (37 °C) -0.268 ± 0.13.
For CAUUAGCAAUAUUACGCCAG the same measures were -0.337 ± 0.094 and 0.267 ± 0.12.
CUUCAGCAAUAUUACGAGUA: where the note is “30 °C”, the “self-splicing fitness (ln)” value is -1.21 ± 0.4.
Consider CCGUAGCAAUAUUACGAACC, for which the “self-splicing fitness (ln)” value (37 °C) was -2.06 ± 0.45.
Consider CCAGAGCAAUAUUACGUGCC, for which the “self-splicing fitness (ln)” value (30 °C) was -3.42 ± 0.38 and the “self-splicing fitness (ln)” value (37 °C) was -2.76 ± 0.32.
For UCCCAGCAAUAUUACGGAAA the same measures were -2.01 ± 0.19 and -0.716 ± 0.13.
Regarding AGCGAGCAAUAUUACGCUUA, the “self-splicing fitness (ln)” value is -3.13 ± 0.27 (30 °C) and 0.422 ± 0.17 (37 °C).
Taken in the same sequence, the figures for CUAGAGCAAUAUUACGAGCG were 0.131 ± 0.1 and 0.74 ± 0.12.
For AAACAGCAAUAUUACGACGU the same measures were -0.232 ± 0.045 and 0.39 ± 0.052.
For GUGUAGCAAUAUUACGCCUA the same measures were -1.92 ± 0.26 and -0.813 ± 0.24.
For GUGAAGCAAUAUUACGGAAG, the “self-splicing fitness (ln)” value is -1.94 ± 0.19 (30 °C) and 0.825 ± 0.21 (37 °C).
With CGUCAGCAAUAUUACGUGGA, the “self-splicing fitness (ln)” value is -3.65 ± 0.24 (30 °C) and -0.946 ± 0.17 (37 °C).
Taken in the same sequence, the figures for AGGCAGCAAUAUUACGCCAU were -2.27 ± 0.25 and -1.39 ± 0.3.
Taken in the same sequence, the figures for GCUGAGCAAUAUUACGCAGA were -2.47 ± 0.29 and -1.6 ± 0.32.
In the case of CAACAGCAAUAUUACGAGUU, the “self-splicing fitness (ln)” value is -2.6 ± 0.096 (30 °C) and -2.09 ± 0.13 (37 °C).
For UGUAAGCAAUAUUACGCUAA the same measures were -2.73 ± 0.21 and -0.75 ± 0.15.
Take GUGAAGCAAUAUUACGUAUU: the “self-splicing fitness (ln)” value was -1.21 ± 0.12 (30 °C) and 0.0695 ± 0.12 (37 °C).
For UGACAGCAAUAUUACGAGUG the same measures were -1.09 ± 0.054 and -0.833 ± 0.077.
Regarding ACAUAGCAAUAUUACGACGA, the “self-splicing fitness (ln)” value is -0.942 ± 0.068 (30 °C) and -0.294 ± 0.078 (37 °C).
Consider GCGGAGCAAUAUUACGCCAG, for which the “self-splicing fitness (ln)” value is, setting by setting: (30 °C) -2.22 ± 0.42; (37 °C) -2.26 ± 0.42.
With AAACAGCAAUAUUACGGAGU, the “self-splicing fitness (ln)” value is, setting by setting: (30 °C) -3.77 ± 0.16; (37 °C) -2.53 ± 0.11.
For GCCGAGCAAUAUUACGUAUA the same measures were -3.29 ± 0.15 and -1.87 ± 0.12.
For UACCAGCAAUAUUACGCUCA the same measures were 0.178 ± 0.073 and 0.378 ± 0.081.
For GACGAGCAAUAUUACGUGGA the same measures were -4 ± 0.21 and -2.92 ± 0.21.
Consider UUCCAGCAAUAUUACGAUAA, for which the “self-splicing fitness (ln)” value is, setting by setting: (30 °C) 0.0765 ± 0.06; (37 °C) 0.459 ± 0.071.
For UAGCAGCAAUAUUACGGCUC the same measures were -0.698 ± 0.094 and -0.839 ± 0.12.
Taken in the same sequence, the figures for AUCAAGCAAUAUUACGGUCA were -1.76 ± 0.14 and -1.28 ± 0.13.
